{"source": "patent US20130030156A1", "about": "(Merck Sharp & Dohme, published 2013)", "binders": {"B1": {"name": "TRX585 (8G6 mAb), mouse anti-human ILT5 monoclonal antibody (antibody, V domains shown)", "VH": "DVQLQESGPGLVKPSQSLFLTCSVTGYSISSSYYWNWIRQFPGNKLEWMGYISFDGSNNYNPSLKNRISITRDTSKNQFFLKLNSVTTEDTATYYCAREKENYYGSSFYYFDYWGLGTSLTVSS", "VL": "DIQMTQSPASLSVSVGETVTITCRASENIYSNLAWYQQKQGKSPQVLVYAATNLADGVPSRFSGSGSGTQFSLKINSLQSEDFGNYFCQHFWRIPWTFGGGTKLEIK", "notes": "Murine monoclonal antibody, IgG1, kappa, purified from hybridoma supernatant; also called TRX585 antibody; TRX585 mAb"}}, "target": "T1, human ILT5 on the surface of human peripheral blood cells (human, UniProt O75022 24-631)", "T1 construct": "whole, on cells; Endogenous ILT5 on primary human cells; also called surface ILT5; hILT5", "T1 sequence (O75022 24-631)": "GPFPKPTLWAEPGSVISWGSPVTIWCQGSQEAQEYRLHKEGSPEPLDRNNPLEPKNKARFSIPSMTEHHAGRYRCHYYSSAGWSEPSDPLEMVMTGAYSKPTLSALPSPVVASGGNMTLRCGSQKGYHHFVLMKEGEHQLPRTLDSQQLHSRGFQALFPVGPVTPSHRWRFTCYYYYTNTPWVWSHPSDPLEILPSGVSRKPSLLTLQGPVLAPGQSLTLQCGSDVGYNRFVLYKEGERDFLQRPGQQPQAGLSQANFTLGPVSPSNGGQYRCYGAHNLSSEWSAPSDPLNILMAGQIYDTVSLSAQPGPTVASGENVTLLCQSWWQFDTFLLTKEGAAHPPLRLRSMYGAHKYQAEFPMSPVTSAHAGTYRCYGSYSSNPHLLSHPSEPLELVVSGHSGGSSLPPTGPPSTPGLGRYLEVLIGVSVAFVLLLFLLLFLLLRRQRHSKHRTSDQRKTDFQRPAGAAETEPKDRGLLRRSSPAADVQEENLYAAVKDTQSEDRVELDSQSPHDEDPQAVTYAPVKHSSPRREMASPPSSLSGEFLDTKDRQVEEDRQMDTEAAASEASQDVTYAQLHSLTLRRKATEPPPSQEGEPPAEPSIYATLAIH", "assay": "flow cytometry, TRX585 staining of human PBMCs", "source_text": "The latter plots show the levels of two fluorescent parameters (i.e., fluorescent antibodies) on various cell subpopulations, quantitate the proportions of cells displaying these parameters, and indicate the frequency of cells present at each point in the plot. Here, peripheral blood mononuclear cells (PBMCs) from a healthy human donor were stained with the TRX585 antibody as well as antibodies specific for the indicated cell subset. In FIG. 1A, plots depict ILT5 (TRX585) expression by gated CD56⁻CD3⁺CD4⁺ or CD56⁻CD3⁺CD8⁺ T cells. In FIG. 1B, PBMCs were stained as in (A) and subsequently stained for intracellular Foxp3. Plots show ILT5 expression by gated CD56⁻CD3⁺CD4⁺Foxp3⁺ or CD56⁻ CD3⁺CD4⁺Foxp3⁻ T cells. […] Percentages of gated cells and mean fluorescence intensity of the ILT5-staining of ILT5⁺ cells are depicted inside and above plots, respectively. […]\nPeripheral blood mononuclear cells (PBMCs) from healthy human blood donors were stained with a murine monoclonal antibody (TRX585) comprising a heavy chain variable region comprising the amino acid sequence of SEQ ID NO: 2 or SEQ ID NO: 3, and a light chain variable region comprising the amino acid sequence of SEQ ID NO: 1. […] PBMCs were also stained with antibodies specific for defined hematopoietic cell lineages and analyzed for ILT5 expression by flow cytometry.", "data": [{"binder": "B1", "values": [{"measurement": "binding result", "value": "binds"}]}]}
